Data taken from patent publication US8436159B2, “Glyphosate resistant class I 5-endolpyruvylshikimate-3-phosphate synthase (EPSPS)” (Monsanto Technology LLC, priority 2003, dated 2013).

Substrate: C=C(OP(=O)(O)O)C(=O)O
Assay: purified protein, by the assay type
Conditions: other: pH 7.0, 1 mM shikimate-3-phosphate
From the text: The double variants of the present invention were made using pMON58452 (FIG. 5) as the template. This pMON58452 EPSPS gene template contains the maize EPSPS double variant T102I, P106T (TIPT) that was constructed by mutagenesis of pMON70467 with the mutagenesis primers mEmut-9-U and mEmut-10-L. The various mutagenesis primer sequences were designed and then were synthesized by Invitrogen Corp., Custom Primers and used in combination in a PCR to create the variant EPSPS coding sequences. The PCR was set up in a 50 μl reaction in the following manner: dH2O 38 μl; 2 mM dNTP 1 μL; 10× buffer 5 μL; pMON58452 1 μL (10 ng); primer-U 2 μL; primer-L 2 μL; pfu Turbo enzyme 1 μL. PCR was carried out on a MJ Research PTC-200 thermal cycler using the following program: Step 1—94° C. for 30 seconds; Step 2—94° C. for 30 seconds; Step 3—55° C. for 1 minute; Step 4—68° C. for 14 minute; Step 5—go to step 2, 16 times; Step 6—End. At the end of the PCR, 1 μl of the restriction enzyme DpnI was added to each 50 μl of PCR reaction and the mixture was incubated at 37° C. for 1 hour. […]

B1: maize (Zea mays) class I EPSPS variant TIPC (T102I, P106C), pMON42485 (Zea mays; P106C/T102I) (protein)
chain: AGAEEIVLQPIKEISGTVKLPGSKSLSNRILLLAALSEGTTVVDNLLNSEDVHYMLGALRTLGLSVEADKAAKRAVVVGCGGKFPVEDAKEEVQLFLGNAGIAMRCLTAAVTAAGGNATYVLDGVPRMRERPIGDLVVGLKQLGADVDCFLGTDCPPVRVNGIGGLPGGKVKLSGSISSQYLSALLMAAPLALGDVEIEIIDKLISIPYVEMTLRLMERFGVKAEHSDSWDRFYIKGGQKYKSPKNAYVEGDASSASYFLAGAAITGGTVTVEGCGTTSLQGDVKFAEVLEMMGAKVTWTETSVTVTGPPREPFGRKHLKAIDVNMNKMPDVAMTLAVVALFADGPTAIRDVASWRVKETERMVAIRTELTKLGASVEEGPDYCIITPPEKLNVTAIDTYDDHRMAMAFSLAACAEVPVTIRDPGCTRKTFPDYFDVLSTFVKN
B1 was tested, and the Km was 47.0 ± 4.0 µM.
